According to patent US7425447 (Biogen, dated 2008):
Read-outs that look alike come from different tables or passages of the source.

T1: B7.1/Ig fusion protein (human, UniProt P33681 35-242, limits assumed)
T1 sequence (looked up): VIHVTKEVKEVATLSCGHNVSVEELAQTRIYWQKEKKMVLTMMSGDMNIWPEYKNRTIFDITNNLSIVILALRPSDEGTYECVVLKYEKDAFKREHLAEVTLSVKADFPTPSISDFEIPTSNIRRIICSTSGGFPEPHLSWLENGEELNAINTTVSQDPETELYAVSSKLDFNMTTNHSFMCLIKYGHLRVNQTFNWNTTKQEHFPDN

T2: B7 antigen (CD80) as used in surface plasmon resonance (UniProt P33681 35-242, limits assumed)
T2 sequence (looked up): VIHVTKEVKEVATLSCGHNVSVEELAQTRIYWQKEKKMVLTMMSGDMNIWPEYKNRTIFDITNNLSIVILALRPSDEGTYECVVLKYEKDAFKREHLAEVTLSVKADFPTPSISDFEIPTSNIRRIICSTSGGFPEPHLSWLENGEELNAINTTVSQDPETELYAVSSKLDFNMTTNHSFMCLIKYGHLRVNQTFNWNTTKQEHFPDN

T3: human B7.1 antigen (CD80), membrane associated (human, UniProt P33681 35-288)
T3 sequence (looked up): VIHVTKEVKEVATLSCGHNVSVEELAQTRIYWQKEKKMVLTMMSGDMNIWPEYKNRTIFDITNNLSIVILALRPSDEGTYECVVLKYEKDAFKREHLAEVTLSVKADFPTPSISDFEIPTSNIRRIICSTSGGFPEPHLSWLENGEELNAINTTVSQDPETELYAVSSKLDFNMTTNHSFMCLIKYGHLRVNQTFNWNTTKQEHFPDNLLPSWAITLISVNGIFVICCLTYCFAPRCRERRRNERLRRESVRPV


Assays:
[1] = biological target: human B7.1 antigen (CD80), membrane associated (human) (UniProt P33681); assay: competition on B7.1 transfected CHO cells; competitor pair BB-1 and L307.4 (FIG. 8)
B7.1/Ig fusion protein [2] = biological target: T1, B7.1/Ig fusion protein; assay: cell-based or functional assay
B7.1/Ig fusion protein [3] = biological target: T1, B7.1/Ig fusion protein; assay: competition of 125I-B7.1Ig binding to CD28 positive peripheral blood T lymphocytes (FIG. 10)
[4] = biological target: T2, B7 antigen (CD80) as used in surface …; assay: surface plasmon resonance
B7.1/Ig fusion protein [5] = biological target: T1, B7.1/Ig fusion protein; assay: Scatchard analysis, binding to B7-Ig coated plates (apparent Kd)
[6] = biological target: T3, human B7.1 antigen (CD80), membrane …; assay: cell-based or functional assay
B7.1/Ig fusion protein [7] = biological target: T1, B7.1/Ig fusion protein; assay: Scatchard analysis, binding to B7-Ig coated plates (apparent Kd); remark: listed apart in the source

| Molecule | cross-reactivity (competition) [1] [%] | concentration for equivalent blocking of IL-2 production against CTLA-4Ig, anti-CD3/B7 beads (8:1) (B7.1/Ig fusion protein [2]) [fold] | IC50 (B7.1/Ig fusion protein [3]) [µg/mL] | Kd [4] [nM] | Kd (B7.1/Ig fusion protein [5]) [nM] | inhibition of IL-2 production in mixed lymphocyte reaction [6] [µg/mL] | Kd (B7.1/Ig fusion protein [7]) [nM] |
| --- | --- | --- | --- | --- | --- | --- | --- |
| BB-1 murine anti-B7 antibody | 50 | – | – | – | – | – | – |
| PRIMATIZED 16C10 (antibody, V domains shown, Monkey variable domains with human constant regions, made in CHO cells; Biotinylated in some assays; also called P16C10; copies: 2 + 2) VH: QVQLQESGPGLVKPSETLSLTCAVSGGSISGGYGWGWIRQPPGKGLEWIGSFYSSSGNTYYNPSLKSQVTISTDTSKNQFSLKLNSMTAADTAVYYCVRDRLFSVVGMVYNNWFDVWGPGVLVTVSS VL: ESALTQPPSVSGAPGQKVTISCTGSTSNIGGYDLHWYQQLPGTAPKLLIYDINKRPSGISDRFSGSKSGTAASLAITGLQTEDEADYYCQSYDSSLNAQVFGGGTRLTVLG | – | ~10 | < 1 | 4 | – | – | – |
| monkey monoclonal antibody 7B6 (antibody, V domains shown, Cynomolgus monkey antibody from a heterohybridoma; also called hybridoma ATCC HB-12120) VH: EVQLVESGGGLVQPGGSLRVSCAVSGFTFSDHYMYWFRQAPGKGPEWVGFIRNKPNGGTTEYAASVKDRFTISRDDSKSIAYLQMSSLKIEDTAVYYCTTSYISHCRGGVCYGGYFEFWGQGALVTVSS VL: EVVMTQSPLSLPITPGEPASISCRSSQSLKHSNGDTFLSWYQQKPGQPPRLLIYKVSNRDSGVPDRFSGSGAGTDFTLKISAVEAEDVGVYFCGQGTRTPPTFGGGTKVEIK | – | – | – | – | ~10.7 | 5 | ~10.7 |

More lines, now with the values ahead:

| cross-reactivity (competition) [1] [%] | concentration for equivalent blocking of IL-2 production against CTLA-4Ig, anti-CD3/B7 beads (8:1) (B7.1/Ig fusion protein [2]) [fold] | IC50 (B7.1/Ig fusion protein [3]) [µg/mL] | Kd [4] [nM] | Kd (B7.1/Ig fusion protein [5]) [nM] | inhibition of IL-2 production in mixed lymphocyte reaction [6] [µg/mL] | Kd (B7.1/Ig fusion protein [7]) [nM] | Molecule |
| --- | --- | --- | --- | --- | --- | --- | --- |
| – | – | – | – | ~8.1 | 0.1 | ~8.1 | monkey monoclonal antibody 16C10 (antibody, V domains shown, Cynomolgus monkey antibody from a heterohybridoma; also called hybridoma ATCC HB-12119) VH: QVQLQESGPGLVKPSETLSLTCAVSGGSISGGYGWGWIRQPPGKGLEWIGSFYSSSGNTYYNPSLKSQVTISTDTSKNQFSLKLNSMTAADTAVYYCVRDRLFSVVGMVYNNWFDVWGPGVLVTVSS VL: ESALTQPPSVSGAPGQKVTISCTGSTSNIGGYDLHWYQQLPGTAPKLLIYDINKRPSGISDRFSGSKSGTAASLAITGLQTEDEADYYCQSYDSSLNAQVFGGGTRLTVL |
| – | – | – | – | ~6.2 | 5 | ~6.2 | monkey monoclonal antibody 7C10 (antibody, V domains shown, Cynomolgus monkey antibody from a heterohybridoma; The claims (CLM-00020) say that the amino acid entries are the even numbers of each pair; also called 7C10 monkey Ig; hybridoma ATCC HB-12117) VH: QVKLQQWGEGLLQPSETLSRTCVVSGGSISGYYYWTWIRQTPGRGLEWIGHIYGNGATTNYNPSLKSRVTISKDTSKNQFFLNLNSVTDADTAVYYCARGPRPDCTTICYGGWVDVWGPGDLVTVSS VL: AYELTQPPSVSVSPGQTARITCGGDNSRNEYVHWYQQKPARAPILVIYDDSDRPSGIPERFSGSKSGNTATLTINGVEAGDEADYYCQVWDRASDHPVFGGGTRVTVL |
